T1: reduced CFHR2 (UniProt P36980 19-270, limits assumed)
T1 sequence (looked up): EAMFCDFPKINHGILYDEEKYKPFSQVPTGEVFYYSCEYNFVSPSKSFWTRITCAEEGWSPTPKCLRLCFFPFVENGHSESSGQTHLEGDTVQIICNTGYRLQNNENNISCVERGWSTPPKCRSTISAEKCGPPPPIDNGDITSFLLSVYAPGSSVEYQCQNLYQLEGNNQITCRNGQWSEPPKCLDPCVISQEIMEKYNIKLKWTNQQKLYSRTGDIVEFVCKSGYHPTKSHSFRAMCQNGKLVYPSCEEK

T2: reduced CFHR5 (UniProt Q9BXR6 19-569, limits assumed)
T2 sequence (looked up): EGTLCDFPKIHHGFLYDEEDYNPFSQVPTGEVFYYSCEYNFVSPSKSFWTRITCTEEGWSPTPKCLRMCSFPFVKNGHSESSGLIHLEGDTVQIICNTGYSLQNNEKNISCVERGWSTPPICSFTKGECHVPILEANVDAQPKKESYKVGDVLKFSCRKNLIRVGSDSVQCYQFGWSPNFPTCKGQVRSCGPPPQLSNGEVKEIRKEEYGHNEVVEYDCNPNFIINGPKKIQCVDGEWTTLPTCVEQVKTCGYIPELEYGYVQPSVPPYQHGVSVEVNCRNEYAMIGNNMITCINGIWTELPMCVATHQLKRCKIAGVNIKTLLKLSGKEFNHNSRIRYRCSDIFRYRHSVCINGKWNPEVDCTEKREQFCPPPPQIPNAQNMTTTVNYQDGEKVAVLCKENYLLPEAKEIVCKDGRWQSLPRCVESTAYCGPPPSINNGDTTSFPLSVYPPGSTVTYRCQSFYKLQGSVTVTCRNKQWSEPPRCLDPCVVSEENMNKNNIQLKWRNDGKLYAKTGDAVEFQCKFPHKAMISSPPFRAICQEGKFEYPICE

T3: reduced CFHR3 (UniProt Q02985 19-330, limits assumed)
T3 sequence (looked up): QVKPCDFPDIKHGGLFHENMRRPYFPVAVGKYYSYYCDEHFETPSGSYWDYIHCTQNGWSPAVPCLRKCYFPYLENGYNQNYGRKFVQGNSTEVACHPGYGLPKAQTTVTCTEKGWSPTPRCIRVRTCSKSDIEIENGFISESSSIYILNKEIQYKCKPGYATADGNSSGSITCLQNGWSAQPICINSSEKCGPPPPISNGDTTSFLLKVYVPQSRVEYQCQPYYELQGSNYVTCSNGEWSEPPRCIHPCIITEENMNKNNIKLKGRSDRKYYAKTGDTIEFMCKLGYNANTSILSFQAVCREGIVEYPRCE

T4: reduced CFHR1 (UniProt Q03591 19-330, limits assumed)
T4 sequence (looked up): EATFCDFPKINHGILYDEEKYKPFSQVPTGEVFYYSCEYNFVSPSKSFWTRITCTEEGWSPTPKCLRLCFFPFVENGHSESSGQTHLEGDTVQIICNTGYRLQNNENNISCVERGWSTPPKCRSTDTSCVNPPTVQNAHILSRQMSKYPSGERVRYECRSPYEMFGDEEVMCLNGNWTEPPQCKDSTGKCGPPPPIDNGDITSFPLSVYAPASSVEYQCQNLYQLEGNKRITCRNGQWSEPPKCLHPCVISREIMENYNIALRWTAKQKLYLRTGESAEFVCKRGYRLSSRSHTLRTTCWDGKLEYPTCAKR

T5: non-reduced CFHR3
T5 construct: also called CFHR3 (NON-REDUCED)
T5 chain: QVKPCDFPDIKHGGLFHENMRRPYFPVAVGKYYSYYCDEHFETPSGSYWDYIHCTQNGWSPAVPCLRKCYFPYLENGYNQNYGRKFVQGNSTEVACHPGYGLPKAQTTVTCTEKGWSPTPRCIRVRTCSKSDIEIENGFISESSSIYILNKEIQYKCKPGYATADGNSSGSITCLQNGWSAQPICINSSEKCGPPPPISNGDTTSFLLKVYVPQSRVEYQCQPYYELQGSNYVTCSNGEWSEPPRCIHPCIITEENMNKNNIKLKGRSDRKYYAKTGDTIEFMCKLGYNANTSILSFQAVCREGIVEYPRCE

T6: non-reduced CFHR5
T6 construct: also called CFHR5 (NON-REDUCED)
T6 chain: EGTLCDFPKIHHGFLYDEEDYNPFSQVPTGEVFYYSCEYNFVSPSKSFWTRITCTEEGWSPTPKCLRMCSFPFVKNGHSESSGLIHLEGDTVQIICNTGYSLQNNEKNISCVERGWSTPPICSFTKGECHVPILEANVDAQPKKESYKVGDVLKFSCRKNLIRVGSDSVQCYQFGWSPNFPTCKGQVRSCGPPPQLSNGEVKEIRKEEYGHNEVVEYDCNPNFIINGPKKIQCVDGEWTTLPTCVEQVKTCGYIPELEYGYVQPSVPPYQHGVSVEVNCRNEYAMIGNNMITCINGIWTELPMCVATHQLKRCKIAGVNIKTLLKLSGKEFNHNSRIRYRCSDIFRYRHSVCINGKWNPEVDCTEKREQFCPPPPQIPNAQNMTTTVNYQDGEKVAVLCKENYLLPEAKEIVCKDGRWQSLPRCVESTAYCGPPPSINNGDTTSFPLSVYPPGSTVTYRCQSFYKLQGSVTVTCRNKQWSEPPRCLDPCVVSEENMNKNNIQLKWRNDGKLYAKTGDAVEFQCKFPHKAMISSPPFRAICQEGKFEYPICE

T7: non-reduced CFHR2
T7 construct: also called CFHR2 (NON-REDUCED)
T7 chain: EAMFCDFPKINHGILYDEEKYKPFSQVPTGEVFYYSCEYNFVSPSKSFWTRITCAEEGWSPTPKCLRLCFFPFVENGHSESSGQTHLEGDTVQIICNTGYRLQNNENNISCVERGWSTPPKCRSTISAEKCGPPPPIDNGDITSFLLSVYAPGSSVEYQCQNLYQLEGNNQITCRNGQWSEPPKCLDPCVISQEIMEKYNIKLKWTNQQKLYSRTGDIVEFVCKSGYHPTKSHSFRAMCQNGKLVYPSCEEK

T8: non-reduced CFHR1
T8 construct: also called CFHR1 (NON-REDUCED)
T8 chain: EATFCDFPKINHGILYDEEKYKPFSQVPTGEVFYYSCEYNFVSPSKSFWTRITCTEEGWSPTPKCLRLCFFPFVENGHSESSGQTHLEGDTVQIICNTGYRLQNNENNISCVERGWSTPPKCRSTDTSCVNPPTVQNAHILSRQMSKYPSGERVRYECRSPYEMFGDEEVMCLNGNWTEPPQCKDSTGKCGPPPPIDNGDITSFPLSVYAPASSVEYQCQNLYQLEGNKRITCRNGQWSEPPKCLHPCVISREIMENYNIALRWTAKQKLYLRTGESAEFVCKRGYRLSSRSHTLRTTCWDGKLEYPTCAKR

T9: reduced CFH (Homo sapiens (Human), UniProt P08603 860-1231, limits assumed)
T9 construct: also called CFH (reduced)
T9 sequence: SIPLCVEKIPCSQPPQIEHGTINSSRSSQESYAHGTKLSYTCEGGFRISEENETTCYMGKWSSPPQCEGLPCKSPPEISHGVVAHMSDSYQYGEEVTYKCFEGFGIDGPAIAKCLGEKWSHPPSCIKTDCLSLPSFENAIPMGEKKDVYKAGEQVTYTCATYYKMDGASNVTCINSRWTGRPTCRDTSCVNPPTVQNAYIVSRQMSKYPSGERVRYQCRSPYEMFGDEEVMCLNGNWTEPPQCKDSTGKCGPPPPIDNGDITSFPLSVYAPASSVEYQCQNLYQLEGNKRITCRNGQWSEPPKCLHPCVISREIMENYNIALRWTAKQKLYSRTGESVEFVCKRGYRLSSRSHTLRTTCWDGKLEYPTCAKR

T10: non-reduced CFH
T10 construct: also called CFH (NON-REDUCED)
T10 chain: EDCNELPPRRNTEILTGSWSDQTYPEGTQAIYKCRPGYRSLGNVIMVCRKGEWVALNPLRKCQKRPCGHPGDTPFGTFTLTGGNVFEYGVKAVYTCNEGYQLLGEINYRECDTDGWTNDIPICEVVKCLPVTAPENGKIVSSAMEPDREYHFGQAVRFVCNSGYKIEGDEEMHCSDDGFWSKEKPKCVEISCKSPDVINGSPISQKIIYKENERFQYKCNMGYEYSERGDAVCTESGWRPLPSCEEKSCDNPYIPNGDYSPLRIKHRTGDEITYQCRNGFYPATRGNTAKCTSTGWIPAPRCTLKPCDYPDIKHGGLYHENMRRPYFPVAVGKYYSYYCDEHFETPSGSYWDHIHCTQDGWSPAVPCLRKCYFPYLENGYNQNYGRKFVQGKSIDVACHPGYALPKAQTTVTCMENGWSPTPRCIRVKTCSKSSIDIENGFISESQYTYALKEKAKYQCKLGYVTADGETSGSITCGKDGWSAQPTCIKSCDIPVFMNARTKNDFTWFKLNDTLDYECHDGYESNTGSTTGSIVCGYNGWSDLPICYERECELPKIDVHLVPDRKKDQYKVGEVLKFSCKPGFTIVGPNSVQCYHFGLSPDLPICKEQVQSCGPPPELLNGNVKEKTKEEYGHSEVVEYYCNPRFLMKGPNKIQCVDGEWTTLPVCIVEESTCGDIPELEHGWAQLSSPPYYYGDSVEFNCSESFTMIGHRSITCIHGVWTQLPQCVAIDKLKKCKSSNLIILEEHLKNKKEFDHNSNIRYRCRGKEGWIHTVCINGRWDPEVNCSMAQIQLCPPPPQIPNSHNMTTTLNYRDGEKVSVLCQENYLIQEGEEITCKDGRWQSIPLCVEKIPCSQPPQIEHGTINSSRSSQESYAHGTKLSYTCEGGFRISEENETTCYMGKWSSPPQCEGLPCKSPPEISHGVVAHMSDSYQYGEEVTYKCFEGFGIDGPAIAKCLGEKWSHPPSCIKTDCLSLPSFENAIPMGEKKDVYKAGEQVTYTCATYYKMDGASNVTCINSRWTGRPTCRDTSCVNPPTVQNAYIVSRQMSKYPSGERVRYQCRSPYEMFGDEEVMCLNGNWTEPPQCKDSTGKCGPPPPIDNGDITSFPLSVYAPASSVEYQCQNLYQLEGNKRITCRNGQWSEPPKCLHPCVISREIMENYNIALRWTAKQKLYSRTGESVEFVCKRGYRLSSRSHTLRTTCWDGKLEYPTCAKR


Columns and labels:
reduced CFHR2 = target: T1, reduced CFHR2; test: ELISA, reduced antigen
reduced CFHR5 [1] = target: T2, reduced CFHR5; test: ELISA, reduced antigen
reduced CFHR3 [2] = target: T3, reduced CFHR3; test: ELISA, reduced antigen
reduced CFHR1 = target: T4, reduced CFHR1; test: ELISA, reduced antigen
non-reduced CFHR4 = target: T11, non-reduced CFHR4; test: ELISA, non-reduced antigen
T11 construct: not reduced; also called CFHR4 (NON-REDUCED)

non-reduced CFHR3 = target: T5, non-reduced CFHR3; test: ELISA, non-reduced antigen
non-reduced CFHR5 = target: T6, non-reduced CFHR5; test: ELISA, non-reduced antigen
non-reduced CFHR2 = target: T7, non-reduced CFHR2; test: ELISA, non-reduced antigen
non-reduced CFHR1 = target: T8, non-reduced CFHR1; test: ELISA, non-reduced antigen
reduced CFHR3 [3] = target: T3, reduced CFHR3; test: ELISA on reduced CFHR3
reduced CFHR5 [4] = target: T2, reduced CFHR5; test: ELISA on reduced CFHR5
reduced CFH [5] = target: T9, reduced CFH; test: ELISA on reduced CFH after heating the mAb (70 C, 1 h, as Figure 16)
reduced CFH [6] = target: T9, reduced CFH; test: ELISA, reduced antigen
non-reduced CFH = target: T10, non-reduced CFH; test: ELISA, non-reduced antigen

Binder	fold change vs isotype at 1 ug/ml (reduced CFHR2) [fold]	fold change vs isotype at 1 ug/ml (reduced CFHR5 [1]) [fold]	fold change vs isotype at 1 ug/ml (reduced CFHR3 [2]) [fold]	fold change vs isotype at 1 ug/ml (reduced CFHR1) [fold]	fold change vs isotype at 1 ug/ml (non-reduced CFHR4) [fold]	binding result (non-reduced CFHR3)	fold change vs isotype at 1 ug/ml (non-reduced CFHR3) [fold]	binding result (non-reduced CFHR5)	fold change vs isotype at 1 ug/ml (non-reduced CFHR5) [fold]	fold change vs isotype at 1 ug/ml (non-reduced CFHR2) [fold]	fold change vs isotype at 1 ug/ml (non-reduced CFHR1) [fold]	binding result (reduced CFHR3 [3])	binding result (reduced CFHR5 [4])	Harsh Heat challenge ELISA value (reduced CFH [5])	fold change vs isotype at 1 ug/ml (reduced CFH [6]) [fold]	fold change vs isotype at 1 ug/ml (non-reduced CFH) [fold]
ATL_0005155 (antibody, human IgG1, kappa, V domains shown, one of the 10 lead mAbs; IgG1; also called ATL5155; ATL_0005155-001) VH: QVQLVESGGGVVQPGRSLRLSCAASGFTFSNYGMHWVRQAPGKGLEWVAVTSFDGKTKYYADSVKGRFTISRDNSKNTLYLQMNSLRAEDTAVYYCAKGGATAAVFDSWGQGTLVTVSS VL: not shown	11.3	1	1	23	1	no binding (tested: 1 ug/ml)	1	no binding (tested: 1 ug/ml)	1	7	13	no binding (tested: 100 ug/ml)	no binding (tested: 100 ug/ml)	–	–	–
ATL_0004894 (antibody, human IgG1, kappa, V domains shown, germlined ATL4717, IgG1; also called ATL4894; 4894 IgG) VH: QVQLVESGGGVVQPGRSLRLSCAASGFTFSIYGMHWVRQAPGKGLEWVAVMSFDGKTKYYADSVKGRFTISRDNSKNTLYLQMNSLRAEDTAVYYCAKGGATAAVFDSWGQGTLVTVSS VL: not shown	10.3	1	1	24.4	–	–	1	–	0.9	7.7	16.6	–	–	0.58	18.4	9.8

Source: patent publication US20250304666A1 (ALCHEMAB THERAPEUTICS, published 2025)
